The target of experiment [1] is T1, human β2-glycoprotein I (β2-GPI) (human, UniProt P02749 20-345).
T1 construct: whole, on cells
T1 sequence (looked up): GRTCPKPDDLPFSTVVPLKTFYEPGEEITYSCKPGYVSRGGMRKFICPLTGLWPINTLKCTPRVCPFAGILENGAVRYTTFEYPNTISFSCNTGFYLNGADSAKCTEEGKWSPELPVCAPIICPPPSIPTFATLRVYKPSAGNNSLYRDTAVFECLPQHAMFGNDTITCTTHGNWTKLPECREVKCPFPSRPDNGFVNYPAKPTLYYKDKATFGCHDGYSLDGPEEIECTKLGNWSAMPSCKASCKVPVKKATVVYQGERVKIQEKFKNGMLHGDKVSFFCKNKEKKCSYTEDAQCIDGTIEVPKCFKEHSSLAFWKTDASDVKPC
In words: flow cytometry of surface β2-GPI on 293T; HLA-DRB1*14:03. In general terms: A flow cytometer gives signals particle by particle.

For experiment [2], the target named is T2, human thyroglobulin (TG) (human, UniProt P01266 20-2768).
T2 construct: whole, on cells; the tag is not described
T2 sequence (P01266 20-2768): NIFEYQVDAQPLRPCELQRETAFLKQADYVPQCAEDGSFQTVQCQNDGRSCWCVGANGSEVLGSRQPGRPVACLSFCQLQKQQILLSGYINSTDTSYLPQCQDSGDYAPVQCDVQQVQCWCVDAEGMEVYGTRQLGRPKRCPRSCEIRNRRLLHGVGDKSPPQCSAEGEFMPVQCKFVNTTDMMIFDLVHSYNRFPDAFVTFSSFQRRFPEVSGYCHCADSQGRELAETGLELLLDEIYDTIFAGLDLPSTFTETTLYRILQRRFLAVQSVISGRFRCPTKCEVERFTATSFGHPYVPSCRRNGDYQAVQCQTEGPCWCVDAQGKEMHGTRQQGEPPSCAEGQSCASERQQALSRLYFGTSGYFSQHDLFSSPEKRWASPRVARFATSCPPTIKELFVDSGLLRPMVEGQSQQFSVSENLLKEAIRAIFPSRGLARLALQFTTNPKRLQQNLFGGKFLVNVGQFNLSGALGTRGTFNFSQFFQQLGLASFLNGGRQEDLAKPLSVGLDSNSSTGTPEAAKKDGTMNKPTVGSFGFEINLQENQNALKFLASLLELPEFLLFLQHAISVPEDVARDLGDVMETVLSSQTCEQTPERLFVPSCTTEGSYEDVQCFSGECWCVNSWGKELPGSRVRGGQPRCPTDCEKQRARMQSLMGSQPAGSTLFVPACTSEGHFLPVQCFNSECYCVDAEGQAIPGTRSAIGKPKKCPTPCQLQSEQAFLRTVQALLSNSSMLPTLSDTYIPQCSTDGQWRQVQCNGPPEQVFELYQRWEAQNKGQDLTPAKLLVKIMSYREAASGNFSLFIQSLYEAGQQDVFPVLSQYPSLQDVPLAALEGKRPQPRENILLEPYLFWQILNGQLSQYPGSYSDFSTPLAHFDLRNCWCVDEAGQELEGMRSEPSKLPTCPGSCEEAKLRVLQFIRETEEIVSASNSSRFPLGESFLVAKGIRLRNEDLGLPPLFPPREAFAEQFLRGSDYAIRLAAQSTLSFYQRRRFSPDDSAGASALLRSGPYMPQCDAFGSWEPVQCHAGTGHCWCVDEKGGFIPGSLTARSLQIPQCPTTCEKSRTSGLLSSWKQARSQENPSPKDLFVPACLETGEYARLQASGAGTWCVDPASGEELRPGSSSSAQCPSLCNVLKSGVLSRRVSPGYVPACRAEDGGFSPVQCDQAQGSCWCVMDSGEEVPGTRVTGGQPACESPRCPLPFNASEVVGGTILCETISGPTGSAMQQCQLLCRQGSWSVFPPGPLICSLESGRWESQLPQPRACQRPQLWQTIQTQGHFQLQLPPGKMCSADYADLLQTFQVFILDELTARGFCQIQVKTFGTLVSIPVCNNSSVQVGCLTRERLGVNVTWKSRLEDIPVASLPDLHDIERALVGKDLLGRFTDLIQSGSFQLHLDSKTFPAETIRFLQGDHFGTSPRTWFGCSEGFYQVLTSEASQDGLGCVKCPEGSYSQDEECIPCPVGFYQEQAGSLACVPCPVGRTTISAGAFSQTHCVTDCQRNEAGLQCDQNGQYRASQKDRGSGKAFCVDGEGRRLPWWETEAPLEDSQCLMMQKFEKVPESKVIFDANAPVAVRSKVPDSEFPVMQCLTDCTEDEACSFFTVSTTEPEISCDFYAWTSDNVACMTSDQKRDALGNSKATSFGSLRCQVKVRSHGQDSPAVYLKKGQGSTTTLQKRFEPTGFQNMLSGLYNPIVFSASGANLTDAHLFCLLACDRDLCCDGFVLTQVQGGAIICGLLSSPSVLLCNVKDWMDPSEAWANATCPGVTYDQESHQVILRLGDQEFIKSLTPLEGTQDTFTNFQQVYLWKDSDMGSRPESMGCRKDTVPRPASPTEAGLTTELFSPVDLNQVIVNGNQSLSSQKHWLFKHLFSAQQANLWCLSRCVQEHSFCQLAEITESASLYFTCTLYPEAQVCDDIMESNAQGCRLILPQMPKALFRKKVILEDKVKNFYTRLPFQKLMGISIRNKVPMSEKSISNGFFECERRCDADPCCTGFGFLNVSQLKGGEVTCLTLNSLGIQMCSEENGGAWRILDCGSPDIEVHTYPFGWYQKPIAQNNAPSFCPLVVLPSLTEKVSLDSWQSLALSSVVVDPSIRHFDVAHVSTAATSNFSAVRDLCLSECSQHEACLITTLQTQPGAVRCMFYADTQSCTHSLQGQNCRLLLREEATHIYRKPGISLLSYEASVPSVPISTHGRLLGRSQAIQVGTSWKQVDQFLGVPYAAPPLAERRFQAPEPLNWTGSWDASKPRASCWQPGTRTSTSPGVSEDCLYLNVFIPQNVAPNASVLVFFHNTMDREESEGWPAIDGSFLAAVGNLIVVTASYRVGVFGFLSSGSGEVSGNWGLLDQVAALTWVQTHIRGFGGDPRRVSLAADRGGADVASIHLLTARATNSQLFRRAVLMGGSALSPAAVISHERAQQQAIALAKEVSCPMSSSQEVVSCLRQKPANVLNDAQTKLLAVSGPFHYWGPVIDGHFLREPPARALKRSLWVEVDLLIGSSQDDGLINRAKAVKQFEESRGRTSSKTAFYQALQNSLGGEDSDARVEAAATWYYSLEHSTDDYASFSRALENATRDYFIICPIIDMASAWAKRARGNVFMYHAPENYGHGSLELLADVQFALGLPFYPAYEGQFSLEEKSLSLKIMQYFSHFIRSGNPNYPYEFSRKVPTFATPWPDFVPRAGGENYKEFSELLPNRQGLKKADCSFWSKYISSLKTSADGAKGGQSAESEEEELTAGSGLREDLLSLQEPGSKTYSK
In words: flow cytometry of surface TG (anti-histidine antibody) on 293T; HLA-DRB1*14:03.

For experiment [3], the target named is T1, human β2-glycoprotein I (β2-GPI). In words: flow cytometry of surface β2-GPI on 293T; HLA-DRB1*13:01.
Experiment [4] shares this target. In words: flow cytometry of surface β2-GPI on 293T; HLA-DRB1*14:01.
Experiment [5] has the same target. In words: flow cytometry of surface β2-GPI on 293T; HLA-DRB1*15:01.
Experiment [6] deals with T2, human thyroglobulin (TG). In words: flow cytometry of surface TG (anti-histidine antibody) on 293T; HLA-DRB1*15:01.
For experiment [7], the target named is T1, human β2-glycoprotein I (β2-GPI). In words: flow cytometry of surface β2-GPI on 293T; HLA-DRB1*14:06.
The target is the same in experiment [8]. In words: flow cytometry of surface β2-GPI on 293T; HLA-DRB1*13:03.
For experiment [9] the target is unchanged. In words: flow cytometry of surface β2-GPI on 293T; HLA-DRB1*13:02.
The target is the same in experiment [10]. In words: flow cytometry of surface β2-GPI on 293T; HLA-DRB3*02:02.
Experiment [11] shares this target. In words: flow cytometry of surface β2-GPI on 293T; HLA-DRB1*12:01.
Experiment [12] shares this target. In words: flow cytometry of surface β2-GPI on 293T; HLA-DRB1*14:02.
Experiment [13] has the same target. In words: flow cytometry of surface β2-GPI on 293T; HLA-DRB4*01:03.
Experiment [14] deals with T2, human thyroglobulin (TG). In words: flow cytometry of surface TG (anti-histidine antibody) on 293T; HLA-DRB4*01:03.

B1: HLA-DR (HLA-DRA*01:01/HLA-DRB1*14:03) (other, human)
MHC II alpha: not shown
MHC II beta: not shown
notes: whole, on cells
As for B1, the binding result (in experiment [1]; with human thyroglobulin (TG) [2]) was “binds” each time.

B2: HLA-DR (HLA-DRA*01:01/HLA-DRB1*13:01) (other, human)
MHC II alpha: not shown
MHC II beta: not shown
notes: whole, on cells
For the molecule B2, the binding result in experiment [3] is “binds”.

B3: HLA-DR (HLA-DRA*01:01/HLA-DRB1*14:01) (other, human)
MHC II alpha: not shown
MHC II beta: not shown
notes: whole, on cells
On to B3, for which the binding result in [4] was “binds”.

B4: HLA-DR (HLA-DRA*01:01/HLA-DRB1*15:01) (other, human)
MHC II alpha: not shown
MHC II beta: not shown
notes: whole, on cells; also called HLA-DR15
Regarding B4, the binding result (in experiment [5]; with human thyroglobulin (TG) [6]) was “binds” in each case.

B5: HLA-DR (HLA-DRA*01:01/HLA-DRB1*14:06) (other, human)
MHC II alpha: not shown
MHC II beta: not shown
notes: whole, on cells
In the case of B5, the binding result in experiment [7] is recorded as “binds”.

B6: HLA-DR (HLA-DRA*01:01/HLA-DRB1*13:03) (other, human)
MHC II alpha: not shown
MHC II beta: not shown
notes: whole, on cells
For B6, the binding result in experiment [8] is given as “binds”.

B7: HLA-DR (HLA-DRA*01:01/HLA-DRB1*13:02) (other, human)
MHC II alpha: not shown
MHC II beta: not shown
notes: whole, on cells
B7: the binding result in experiment [9] is listed as “binds”.

B8: HLA-DR (HLA-DRA*01:01/HLA-DRB3*02:02) (other, human)
MHC II alpha: not shown
MHC II beta: not shown
notes: whole, on cells
For the molecule B8, in [10], the binding result is “binds”.

B9: HLA-DR (HLA-DRA*01:01/HLA-DRB1*12:01) (other, human)
MHC II alpha: not shown
MHC II beta: not shown
notes: whole, on cells
In the case of B9, the binding result in experiment [11] is recorded as “binds”.

B10: HLA-DR (HLA-DRA*01:01/HLA-DRB1*14:02) (other, human)
MHC II alpha: not shown
MHC II beta: not shown
notes: whole, on cells
As to B10, the binding result in [12] is given as “binds”.

B11: HLA-DR (HLA-DRA*01:01/HLA-DRB4*01:03) (other, human)
MHC II alpha: not shown
MHC II beta: not shown
notes: whole, on cells; also called HLA-DR53
Take B11: the binding result (in [13]; in the experiment with human thyroglobulin (TG) [14]) was “binds” in each case.

The values above are taken from patent publication US20170176432A1 (OSAKA UNIVERSITY, published 2017).
